The values below come from US20210238283A1 (Y BIOLOGICS, published 2021).

The chains are these.
B1: LAG3-1E09_CDR_1D04 (antibody, V domains shown)
VH: EVQLVESGGDLVKPGGSLRLSCAASGFSFSDHYMNWIRQAPGKGLEWVAYIDTSATYIYYADSVKGRFTISRDNAKNSLYLQMNSLRAEDTAVYYCARDNWGSLDYWGQGTLVTVSS
VL: DIQMTQSPSSLSASVGDRVTITCQASQDISNYLNWYQQKPGKAPNLLIYDASNLETGVPSRFSGSGSGTDFTLTISSLQPEDFATYYCQQSYITPYTFGQGTKLDIK
notes: Tested as full IgG
B2: LAG3-1E09_AM_2E09 (antibody, V domains shown)
VH: B1 VH with I37V, S54N
VL: DIQMTQSSSSLSASVGDRVTITCQASQDITDFLNWYQQKPGKAPKLLIYDASNLETGIPSRFSGSGSGREFTLTINSLQPEDVASYYCQQSYTTPLTFGGGTKVDIK
notes: Tested as full IgG
B3: LAG3-1E09_FR_1E10 (antibody, V domains shown)
VH: B1 VH with D10G, I37V
VL: DIQMTQSPSSLSASVGDRVIITCQASQDITNYLNWYQQKPGKAPKLLIYDASNLETGVPSRFTGSGSGTDFTFTISSLQPEDIATYHCQQSYSTPPYTFGQGTKLEIK
notes: Tested as full IgG
B4: LAG3-1E09_FR_1F03 (antibody, V domains shown)
VH: B1 VH with D10G
VL: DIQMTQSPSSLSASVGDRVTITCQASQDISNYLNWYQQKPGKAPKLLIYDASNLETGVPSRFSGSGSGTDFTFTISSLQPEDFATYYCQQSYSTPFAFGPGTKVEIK
notes: Tested as full IgG
B5: LAG3-1E09_CDR_1E03 (antibody, V domains shown)
VH: B1 VH with S28T, S30N, S54T
VL: B1 VL with P8L, R18S, Q37R, N45E, A51T, I93S, T94I, L104V, D105E
notes: Tested as full IgG
B6: LAG3-1E09_AM_2G11 (antibody, V domains shown)
VH: B1 VH with S30T, I37V
VL: DIQMTQSPSSLSASVGDRVTITCRASQSISYYLNWYQQRPGKAPKLLIYDASNLETGVPSRFSGSGTGTEFTLTISSLQPEDFATYYCQQSYSTPFAFGPGTKVEIK
notes: Tested as full IgG
B7: LAG3-1E09_AM_2H06 (antibody, V domains shown)
VH: B1 VH with S28T, I37V, S54I
VL: B1 VL with K39T, N45K, S91G, I93G, F98Y, D105E
notes: Tested as full IgG
B8: LAG3-1E09_LS_1E06 (antibody, V domains shown)
VH: B1 VH
VL: B1 VL with N31H, Q37R, N45K, D70L, I93S, D105E
notes: Tested as full IgG
B9: LAG3-1E09_FR_1G07 (antibody, V domains shown)
VH: B1 VH with D10G, I37V
VL: DIQMTQSPSSLSASVGDRVTITCRASQGISTYLNWYQQKPGKAPKLLIYDASNLETGVPSRFSGSGSGTDFTLTISGLQPDDFALYYCQQSYTTPYSFGPGTKVEIK
notes: Tested as full IgG
B10: LAG3-1E09_FR_1A10 (antibody, V domains shown)
VH: B1 VH with D10G
VL: DIQMTQSPSSLSASVGDRVTITCQANQDISNYLNWYQQKPGKAPKLLIYDASNLETGVPSRFSGGGSGTDFTLTINNLQPEDFATYYCHHSYNTPITFGQGTRLEIK
notes: Tested as full IgG
B11: LAG3-1E09_LS_1G11 (antibody, V domains shown)
VH: B1 VH with K13Q, S28N, I37V, S54T
VL: B1 VL with S30D, N31K, N45K, I93S, Y96N
notes: Tested as full IgG
B12: LAG3-1E09_AM_1E09 (antibody, V domains shown)
VH: B1 VH
VL: DIQMTQSPATLSVSPGERATLSCRASQSVMNNLAWYQQKPGQAPRLLIYDASNRATGIPARFSGSGSGTDFTLTISRLEPEDFAVYYCEQYVRSPYTFGQGTKLDIK
notes: Tested as full IgG
B13: LAG3-1E09_FR_1A06 (antibody, V domains shown)
VH: B1 VH with D10G, I37V
VL: DIQMTQSPGTLSMSPGEKATLSCRASQTVTTNLAWYQQKSGQAPRLLIYDASTRATGVPDRFSGSGSGTDFTLTISRLEPEDFAVYYCQQYGSSPYTFGQGTKLDIK
notes: Tested as full IgG
B14: LAG3-1E09_LS_1A10 (antibody, V domains shown)
VH: B1 VH
VL: not shown
notes: Tested as full IgG
B15: LAG3-1E09_LS_1H04 (antibody, V domains shown)
VH: B1 VH
VL: DIQMTQSPSSLSASAGDRVTITCQASQDIRNSLSWYQQKPGKAPKLLIYDASNLETGVPSRFSGSGSGTYFTFTISSLQPEDFATYYCQQYDNVPVTFGGGTKLEIK
notes: Tested as full IgG
B16: LAG3-1E09_AM_1B03 (antibody, V domains shown)
VH: B1 VH with K13Q, S30N
VL: DIQMTQSPSSLSASVGDRVTMTCQASQDVSNYLNWYQQKPGKAPKLLIYDASNLEIGVPSRFSGSGSGTDFTFTISSLQPEDTATYYCQQYDHLPPYTFGQGTKLEIK
notes: Tested as full IgG
B17: LAG3-1E09_AM_1H07 (antibody, V domains shown)
VH: B1 VH with K13Q, S30N, I37V
VL: B6 VL with R24Q, S28D, Y31N, R39K, D50E, N53S, T56S, T67S, S76N
notes: Tested as full IgG
B18: LAG3-1E09_AM_1F09 (antibody, V domains shown)
VH: B1 VH with S28N
VL: B1 VL with S30R, N34G, N53T, T74A, I93S, D105E
notes: Tested as full IgG

Positions count from the first letter of the chain named.

In one test the target is T1, mouse LAG-3 overexpressed on HEK293E cells (mouse, UniProt Q61790 24-521).
T1 construct: whole, on cells; also called HEK293E-mLAG3; mLAG3 (Mouse)
T1 sequence (looked up): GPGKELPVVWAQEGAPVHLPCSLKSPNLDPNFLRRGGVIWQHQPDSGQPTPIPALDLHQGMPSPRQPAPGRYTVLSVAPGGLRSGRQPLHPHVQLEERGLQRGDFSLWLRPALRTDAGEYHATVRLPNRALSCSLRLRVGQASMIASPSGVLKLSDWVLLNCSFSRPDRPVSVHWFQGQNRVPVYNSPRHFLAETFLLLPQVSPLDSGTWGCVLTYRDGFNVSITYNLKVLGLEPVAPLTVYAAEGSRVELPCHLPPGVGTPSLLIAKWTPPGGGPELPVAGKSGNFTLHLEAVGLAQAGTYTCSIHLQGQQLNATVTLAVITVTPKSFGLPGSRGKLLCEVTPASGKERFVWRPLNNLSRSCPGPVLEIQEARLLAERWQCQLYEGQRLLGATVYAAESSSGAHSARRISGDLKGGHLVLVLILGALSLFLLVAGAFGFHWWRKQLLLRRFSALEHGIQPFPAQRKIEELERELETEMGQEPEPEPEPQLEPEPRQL
The test can be described thus: flow cytometry, HEK293E cells overexpressing LAG-3, antibody 2 µg/ml. The procedure: (§1) After that, the cells were washed three times with PBS containing 2% FBS and then subjected to the reaction for 30 minutes at 4° C. with anti-human IgG antibody (#FI-3000, Vectorlabs) linked with FITC fluorescent. The cells were washed by the same washing process as above followed by suspension in 0.2 ml PBS containing 2% FBS. The cells were then analyzed by FACSCanto II flow cytometer.
B1: the binding result is “binds”.

As for B2, the binding result was “binds”.

Take B3: the binding result is “binds”.

Regarding B4, the binding result is “binds”.

In the case of B5, the binding result was “binds”.

With B6, the binding result is “binds”.

B7: the binding result is on record as “binds”.

Consider B8, for which the binding result was “binds”.

B9: the binding result was “binds”.

Consider B10, for which the binding result was “binds”.

Consider B11, for which the binding result is listed as “binds”.

The target in another test is T2, human LAG-3 overexpressed on cells (human, UniProt P18627 23-525).
T2 construct: whole, on cells; also called HEK293E-hLAG3; hLAG3 (Human)
T2 sequence (looked up): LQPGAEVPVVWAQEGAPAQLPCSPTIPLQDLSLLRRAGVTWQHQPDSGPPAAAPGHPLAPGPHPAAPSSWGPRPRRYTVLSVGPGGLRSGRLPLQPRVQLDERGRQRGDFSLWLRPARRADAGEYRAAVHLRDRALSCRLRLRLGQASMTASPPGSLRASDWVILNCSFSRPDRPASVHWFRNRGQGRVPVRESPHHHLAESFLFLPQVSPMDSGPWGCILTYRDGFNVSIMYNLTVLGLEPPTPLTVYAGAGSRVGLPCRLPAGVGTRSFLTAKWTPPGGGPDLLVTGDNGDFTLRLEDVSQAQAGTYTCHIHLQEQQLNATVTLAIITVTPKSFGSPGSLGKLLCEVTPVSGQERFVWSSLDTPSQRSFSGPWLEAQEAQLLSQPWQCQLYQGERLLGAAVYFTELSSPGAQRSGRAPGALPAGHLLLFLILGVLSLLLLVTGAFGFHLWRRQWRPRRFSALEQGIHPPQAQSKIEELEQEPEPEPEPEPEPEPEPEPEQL
Described as above. How it is done:
as §1
For the molecule B12, the binding result is reported as “binds”.

Regarding B3, the binding result is “binds”.

On to B13, for which the binding result was “binds”.

Turning to B14, the binding result is recorded as “binds”.

Another test concerns the target T2, human LAG-3 overexpressed on cells. The test can be described thus: cell-based or functional assay.
Consider B1, for which the “EC50 (µg/ml), LAG3/MHC class II Blockade bioassay” value was 0.655 µg/mL.

In the case of B2, the “EC50 (µg/ml), LAG3/MHC class II Blockade bioassay” value was 0.482 µg/mL.

Turning to B15, the “EC50 (µg/ml), LAG3/MHC class II Blockade bioassay” value is 0.284 µg/mL.

Turning to B16, the “EC50 (µg/ml), LAG3/MHC class II Blockade bioassay” value is 1.82 µg/mL.

As to B17, the “EC50 (µg/ml), LAG3/MHC class II Blockade bioassay” value is 0.448 µg/mL.

Turning to B4, the “EC50 (µg/ml), LAG3/MHC class II Blockade bioassay” value worked out at 0.485 µg/mL.

Take B18: the “EC50 (µg/ml), LAG3/MHC class II Blockade bioassay” value was 0.488 µg/mL.

Regarding B5, the “EC50 (µg/ml), LAG3/MHC class II Blockade bioassay” value is 1.06 µg/mL.

In the case of B6, the “EC50 (µg/ml), LAG3/MHC class II Blockade bioassay” value was 0.246 µg/mL.

In the case of B7, the “EC50 (µg/ml), LAG3/MHC class II Blockade bioassay” value worked out at 0.606 µg/mL.

Regarding B8, the “EC50 (µg/ml), LAG3/MHC class II Blockade bioassay” value came to 0.151 µg/mL.

For the molecule B9, the “EC50 (µg/ml), LAG3/MHC class II Blockade bioassay” value is 0.242 µg/mL.

As for B10, the “EC50 (µg/ml), LAG3/MHC class II Blockade bioassay” value was found to be 0.811 µg/mL.

In the case of B11, the “EC50 (µg/ml), LAG3/MHC class II Blockade bioassay” value is 1.51 µg/mL.

For another test, the target named is T3, recombinant human LAG-3-his (#16498-H08H, Sino Biological Inc.) (human, UniProt P18627 23-450).
T3 construct: Bought; also called LAG-3-His (WT); not shown: His tag at the carboxy terminal
T3 sequence (looked up): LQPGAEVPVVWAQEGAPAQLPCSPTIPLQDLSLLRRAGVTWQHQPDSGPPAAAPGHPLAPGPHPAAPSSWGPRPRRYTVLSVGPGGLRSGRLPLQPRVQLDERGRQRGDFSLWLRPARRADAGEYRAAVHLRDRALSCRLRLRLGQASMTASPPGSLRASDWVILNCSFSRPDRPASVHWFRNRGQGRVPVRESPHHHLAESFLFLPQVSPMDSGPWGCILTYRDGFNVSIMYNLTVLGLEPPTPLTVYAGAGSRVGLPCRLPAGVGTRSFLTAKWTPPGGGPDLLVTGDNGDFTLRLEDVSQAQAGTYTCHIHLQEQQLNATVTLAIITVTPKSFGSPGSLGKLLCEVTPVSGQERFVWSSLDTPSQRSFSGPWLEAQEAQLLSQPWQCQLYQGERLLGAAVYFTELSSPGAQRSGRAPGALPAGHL
The test can be described thus: scFv phage ELISA on coated antigen, A490. (ELISA stands for enzyme-linked immunosorbent assay.)
B3: the binding result is “binds”.

In another test the target is T1, mouse LAG-3 overexpressed on HEK293E …. As to the kind of experiment: flow cytometry, HEK293E cells overexpressing mouse LAG-3. The procedure:
as §1
As for B12, the binding result was “no binding (tested: 2 µg/ml)”.

B15: the binding result was “no binding (tested: 2 µg/ml)”.

Turning to B16, the binding result is reported as “no binding (tested: 2 µg/ml)”.

As for B17, the binding result is “no binding (tested: 2 µg/ml)”.

Consider B13, for which the binding result is listed as “no binding (tested: 2 µg/ml)”.

Consider B18, for which the binding result is listed as “no binding (tested: 2 µg/ml)”.

Consider B14, for which the binding result is “no binding (tested: 2 µg/ml)”.
